Measured values: patent US20160251440A1 (Ablynx, published 2016)
Positions count from the first letter of the chain named. In names and notes the source's numbering stands. Like-named read-outs stand apart in the source and are kept apart here.

Assays:
[1] = target: T1, human CXCR4 (on cells, viral lipoparticles or membrane extracts) (human, UniProt P61073 1-352); assay: cell-based or functional assay
[2] = target: T2, CXCR4 and CD4 co-expressed on cells (MOLM-13, THP-1, MT-4, PBMC; Jurkat CD4 low) (human, UniProt P61073 1-352; P01730 26-458); assay: cell-based or functional assay
[3] = target: T2, CXCR4 and CD4 co-expressed on cells …; assay: FACS, MOLM-13 cells (CXCR4+/CD4+)
[4] = target: T2, CXCR4 and CD4 co-expressed on cells …; assay: FACS, Jurkat E6-1 cells (CXCR4+/CD4 low)
[5] = target: T2, CXCR4 and CD4 co-expressed on cells …; assay: cell-based or functional assay; remark: listed apart in the source
[6] = target: T2, CXCR4 and CD4 co-expressed on cells …; assay: cell-based or functional assay; remark: listed apart in the source
[7] = target: T2, CXCR4 and CD4 co-expressed on cells …; assay: flow cytometry on THP-1 cells (CD4 and CXCR4), detection via tag
[8] = target: T3, CXCR4 and IL-3Rα (CD123) co-expressed on MOLM-13 / THP-1 cells (human, UniProt P61073 1-352; P26951 19-378); assay: flow cytometry on MOLM-13 cells (IL-3Ra higher than CXCR4)
T3 construct: whole, on cells; two separate membrane proteins on one cell, not a complex; target of bispecifics on double-positive cells; also called CXCR4+/CD123+ cells

[9] = target: T3, CXCR4 and IL-3Rα (CD123) co-expressed …; assay: flow cytometry on THP-1 cells (CXCR4 and IL-3Ra)
[10] = target: T1, human CXCR4 (on cells, viral …); assay: cell-based or functional assay; remark: listed apart in the source
[11] = target: T4, recombinant IL-3Rα ectodomain (human, UniProt P26951 19-305); assay: ELISA on recombinant IL-3Ra ectodomain (panel 'IL-3Ra ELISA', lower left)
T4 construct: extracellular domain; also called recombinant IL-3Ra; biotinylated-IL-3Rα ectodomain
T4 sequence (looked up): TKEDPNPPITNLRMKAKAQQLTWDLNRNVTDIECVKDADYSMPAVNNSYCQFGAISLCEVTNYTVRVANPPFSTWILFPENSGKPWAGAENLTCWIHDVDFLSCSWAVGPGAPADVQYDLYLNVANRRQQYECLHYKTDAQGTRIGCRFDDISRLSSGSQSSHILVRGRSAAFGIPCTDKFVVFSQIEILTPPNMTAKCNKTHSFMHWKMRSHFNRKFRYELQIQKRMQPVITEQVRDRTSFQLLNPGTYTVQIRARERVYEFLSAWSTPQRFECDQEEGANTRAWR

[12] = target: T1, human CXCR4 (on cells, viral …); assay: ELISA on coated hCXCR4 lipoparticles against null lipoparticles at 100, 10, 1 and 0 nM, anti-c-myc detection
[13] = target: T4, recombinant IL-3Rα ectodomain; assay: ELISA on recombinant IL-3Ra ectodomain (lower right panel)
[14] = target: T1, human CXCR4 (on cells, viral …); assay: ELISA on coated CXCR4 viral lipoparticles (panel 'CXCR4 VLP Binding', upper left)
[15] = target: T3, CXCR4 and IL-3Rα (CD123) co-expressed …; assay: flow cytometry at one concentration, 4.6 nM, on MOLM-13 cells (CXCR4+/CD123+), anti-FLAG detection
[16] = target: T5, recombinant human CEACAM5 (human, UniProt P06731 35-685); assay: SPR Biacore T100, immobilised hCEACAM-5
T5 construct: also called hCEACAM-5; R&D Systems 4128-CM
T5 sequence (looked up): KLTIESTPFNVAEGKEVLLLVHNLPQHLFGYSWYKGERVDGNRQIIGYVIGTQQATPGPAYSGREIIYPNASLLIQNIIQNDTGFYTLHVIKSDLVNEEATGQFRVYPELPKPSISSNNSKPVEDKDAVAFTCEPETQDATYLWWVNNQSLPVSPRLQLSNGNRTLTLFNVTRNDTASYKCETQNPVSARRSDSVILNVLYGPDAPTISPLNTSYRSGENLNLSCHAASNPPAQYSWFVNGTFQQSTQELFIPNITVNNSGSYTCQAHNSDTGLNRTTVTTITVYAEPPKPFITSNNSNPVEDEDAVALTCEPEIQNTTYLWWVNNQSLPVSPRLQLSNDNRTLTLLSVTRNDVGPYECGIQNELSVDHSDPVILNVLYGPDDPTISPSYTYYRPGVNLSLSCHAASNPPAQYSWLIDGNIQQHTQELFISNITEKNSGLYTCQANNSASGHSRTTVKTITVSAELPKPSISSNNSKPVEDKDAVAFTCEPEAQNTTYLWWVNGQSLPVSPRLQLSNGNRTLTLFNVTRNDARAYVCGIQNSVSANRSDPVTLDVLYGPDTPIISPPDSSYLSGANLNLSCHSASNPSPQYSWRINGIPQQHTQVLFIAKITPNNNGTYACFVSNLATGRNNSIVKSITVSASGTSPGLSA

[17] = target: T5, recombinant human CEACAM5; assay: ELISA, coated CEACAM5
[18] = target: T6, human CEACAM5, cell-expressed (human, UniProt P06731 35-685); assay: FACS, LoVo cells
T6 construct: whole, on cells
T6 sequence (looked up): T5 sequence (looked up)

[19] = target: T7, human EGFR, cell-expressed (human, UniProt P00533 25-1210); assay: flow cytometry on HER14 cells (EGFR only), anti-Flag detection
T7 construct: whole, on cells; also called ErbB-1

[20] = target: T6, human CEACAM5, cell-expressed; assay: FACS, LoVo cells; remark: listed apart in the source
[21] = target: T5, recombinant human CEACAM5; assay: ELISA, coated CEACAM5; remark: listed apart in the source

T3 sequence (P61073 whole entry, one chain of several): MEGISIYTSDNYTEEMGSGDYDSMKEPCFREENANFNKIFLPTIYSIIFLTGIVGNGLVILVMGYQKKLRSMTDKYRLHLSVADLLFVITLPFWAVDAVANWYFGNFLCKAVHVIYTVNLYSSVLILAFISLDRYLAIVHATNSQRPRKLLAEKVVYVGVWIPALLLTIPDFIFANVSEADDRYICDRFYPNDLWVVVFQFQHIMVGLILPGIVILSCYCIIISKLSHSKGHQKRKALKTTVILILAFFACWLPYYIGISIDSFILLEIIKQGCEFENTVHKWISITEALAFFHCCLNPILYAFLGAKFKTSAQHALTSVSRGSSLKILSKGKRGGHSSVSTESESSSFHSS
T2 sequence (P61073 whole entry, chain 1 of 2, other chains not shown): as the sequence (P61073 whole entry, one chain of several) above
T1 sequence (P61073 whole entry): as the sequence (P61073 whole entry, one chain of several) above

B1: 03F11-35GS-281F12 (bispecific antibody)
chain: EVQLVESGGGSVQPGGSLTLSCGTSGRTFNVMGWFRQAPGKEREFVAAVRWSSTGIYYTQYADSVKSRFTISRDNAKNTVYLEMNSLKPEDTAVYYCAADTYNSNPARWDGYDFRGQGTQVTVSSGGGGSGGGGSGGGGSGGGGSGGGGSGGGGSGGGGSEVQLVESGGGLVQAGDSLRLSCAASGRAFSRYAMGWFRQAPGKEREFVAAIGWGPSKTNYADSVKGRFTISRDNAKNTVYLQMNTLKPEDTAVYSCAAKFVNTDSTWSRSEMYTYWGQGTQVTVSS
notes: also called CD4#8-35GS-CXCR4#2; CD4#8-CXCR4#2
[1]
  Fold increase vs CXCR4#2, Jurkat E6-1: 0.2 fold
  Fold increase vs CXCR4#2, MOLM-13: 67 fold
  IC50, SDF-1 chemotaxis, Jurkat E6-1: 460 nM
  IC50, SDF-1 chemotaxis, MOLM-13: 1.29 nM
[2]
  IC50, HIV-1 BaL (R5), PBMC: 35.9 nM
  IC50, HIV-1 NL4.3 (X4), MT-4: 11.7 nM
  IC50, HIV-1 NL4.3 (X4), PBMC: 23.7 nM
  IC50, HIV-1 NL4.3 (X4), U87: > 3330 nM
[3]
  EC50: 0.7 nM
[4]
  EC50: 1.1 nM
[5]
  IC50, HIV-1 NL4.3 wt, MT-4: 6 nM
  IC50, NL4.3 2G12 res., MT-4: 3 nM
  IC50, NL4.3 AMD-3100 res., MT-4: 14 nM
  IC50, NL4.3 CD4#8 res., MT-4: 95.7 nM
  IC50, NL4.3 CXCL-12res., MT-4: 70 nM
  IC50, NL4.3 CXCR4#2 res, MT-4: > 310 nM
[6]
  IC50, HIV-1 HE, MT-4: 2 nM
  IC50, HIV-1 NL4.3, MT-4: 6 nM
  IC50, HIV-2 ROD, MT-4: 8.75 nM
[7]
  EC50 (read off the curve): ~1 nM

B2: 281F12-35GS-55A01 (bispecific antibody)
chain: EVQLVESGGGLVQAGDSLRLSCAASGRAFSRYAMGWFRQAPGKEREFVAAIGWGPSKTNYADSVKGRFTISRDNAKNTVYLQMNTLKPEDTAVYSCAAKFVNTDSTWSRSEMYTYWGQGTLVTVSSGGGGSGGGGSGGGGSGGGGSGGGGSGGGGSGGGGSEVQLVESGGGSVQAGGSLRLSCTTSGRALNMYVMGWFRQAPGNEREFVAATSSSGGSTSYPDSVKGRFTISRDNAKNTVYLQMNSLKPEDTAAYRCAASPYVSTPTMNILEEYRYWGQGTLVTVSS
notes: also called CXCR4#2-CD123#2; 281F12-55A01
[8]
  EC50 (read off the curve): ~10 nM
[9]
  EC50 (read off the curve): ~10 nM
[10]
  Fold inc. vs CXCR4#2, Jurkat E6-1: 1.13 fold
  Fold inc. vs CXCR4#2, MOLM-13: 10.9 fold
  IC50, CXCL-12 chemotaxis, Jurkat E6-1: 86 nM
  IC50, CXCL-12 chemotaxis, MOLM-13: 7.85 nM
[11]
  EC50 (read off the curve): ~1 nM

B3: 281F12-9GS-03F11 (bispecific antibody)
chain: EVQLVESGGGLVQAGDSLRLSCAASGRAFSRYAMGWFRQAPGKEREFVAAIGWGPSKTNYADSVKGRFTISRDNAKNTVYLQMNTLKPEDTAVYSCAAKFVNTDSTWSRSEMYTYWGQGTQVTVSSGGGSGGGGSEVQLVESGGGSVQPGGSLTLSCGTSGRTFNVMGWFRQAPGKEREFVAAVRWSSTGIYYTQYADSVKSRFTISRDNAKNTVYLEMNSLKPEDTAVYYCAADTYNSNPARWDGYDFRGQGTQVTVSS
notes: also called CXCR4#2-9GS-CD4#8
[2]
  IC50, HIV-1 NL4.3 (X4), MT-4: 0.2 nM
  IC50, HIV-1 NL4.3 (X4), PBMC: 0.03 nM
  IC50, HIV-1 NL4.3 (X4), U87: 0.53 nM
[12]
  binding result: binds

B4: 57A07-35GS-281F12 (bispecific antibody)
chain: EVQLVESGGGLVQAGGSLRLSCAASGSIFSGNVMGWYRRQAPGKEREWVAAIASGGSIYYRDSVKGRFTISRDNAKNTVYLQMNSLKPEDTAVYYCNSHPPTLPYWGQGTLVTVSSGGGGSGGGGSGGGGSGGGGSGGGGSGGGGSGGGGSEVQLVESGGGLVQAGDSLRLSCAASGRAFSRYAMGWFRQAPGKEREFVAAIGWGPSKTNYADSVKGRFTISRDNAKNTVYLQMNTLKPEDTAVYSCAAKFVNTDSTWSRSEMYTYWGQGTLVTVSS
notes: FLAG3-His6 also made; also called CD123#1-CXCR4#2; 57A07-281F12
[13]
  EC50 (read off the curve): ~0.5 nM
[14]
  binding result: binds
[15]
  binding result: binds

B5: CEA#5 (VHH)
VHH: EVQLVESGGGSVQAGGSLRLSCAASGDTYGSYWMGWFRQAPGQEREAVAAINRGGGYTVYADSVKGRFTISRDNAKNTLYLQMNSLRPDDTADYYCAASGVLGGLHEDWFNYWGQGTLVTVSS
notes: also called T023200005; NbCEA5(K43Q, G47A, T73N, V78L)
[16]
  Kd: 3.1 nM
  koff: 0.0033 s⁻¹
  kon: 1.1e+06 M⁻¹ s⁻¹
[17]
  EC50: 0.11 nM
[18]
  EC50: 2.4 nM
[19]
  binding result: no binding (tested: about 1E-7 M)

B6: CEA#1 (VHH)
VHH: B5 VHH with Q43K, A47G, N74T, L79V
notes: also called NbCEA5
[16]
  Kd: 0.51 nM
  koff: 0.00051 s⁻¹
  kon: 990000 M⁻¹ s⁻¹
[17]
  EC50: 0.026 nM
[18]
  EC50: 1 nM
[19]
  binding result: no binding (tested: about 1E-7 M)

B7: CEA#1-35GS-ctrl (bispecific antibody)
chain: EVQLVESGGGSVQAGGSLRLSCAASGDTYGSYWMGWFRQAPGKEREGVAAINRGGGYTVYADSVKGRFTISRDTAKNTVYLQMNSLRPDDTADYYCAASGVLGGLHEDWFNYWGQGTLVTVSSGGGGSGGGGSGGGGSGGGGSGGGGSGGGGSGGGGSDVQLQASGGGSVQAGGSLRLSCAASGYTIGPYCMGWFRQAPGKEREGVAAINMGGGITYYADSVKGRFTISQDNAKNTVYLLMNSLEPEDTAIYYCAADSTIYASYYECGHGLSTGGYGYDSWGQGTQVTVSS
notes: also called BI#48; T023200048
[20]
  EC50: 0.92 nM
[21]
  EC50: 0.026 nM

B8: CEA#5-35GS-ctrl (bispecific antibody)
chain: B7 chain with K43Q, G47A, T74N, V79L
notes: also called BI#51; T023200051
[20]
  EC50: 2.6 nM
[21]
  EC50: 0.11 nM
